assay: soluble on expression in E. coli; label from the status in PepcDB or PDB records

Sequence	soluble on expression in E. coli
MPISYCVSAKKASVVVESVVGNFTGHENVNLIVARGNRIDVQLVSPEGLKNVCEIPIYGQVLTIALVKCKRDKRHSLIVVTEKWHMAILAYRDGKVVTRAAGCIADPTGRATDNLFSLTIHRNGLIAIRAFEGSVKMIQWESGTDLRHFNVRFDYPNVSDFKFVDTGEDDVYRVAFIYDDDHGKHLQFSDLNMHDKEFRTYSRQASIAADSSVLIPVPHAIGGVIVLGSNSVLYKPNDNLGEVVPYTCSLLENTTFTCHGIVDASGERFLLSDTDGRLLMLLLNVTESQSGYTVKEMRIDYLGETSIADSINYIDNGVVFVGSRLGDSQLIRLMTEPNGGSYSVILETYSNIGPIRDMVMVESDGQPQLVTCTGADKDGSLRVIRNGIGIDELASVDLAGVVGIFPIRLDSNADNYVIVSLSDETHVLQITGEELEDVKLLEINTDLPTIFASTLFGPNDSGIILQATEKQIRLMSSSGLSKFWEPTNGEIISKVSVNAANGQIVLAARDTVYLLTCIVDEMGALDIQLTAEKKFENEIACLDLSNEGDDPNNKATFLVLAFWSTFAMEVIQLPDLITVCHTDLPTKIIPRSIIATCIEEVHYLLVAFGDGALVYYVFDIKTGTHGEPKKSNVGTRPPSLHRVRNKNRQHLFVCSDRPVIIFSASKKLVFSNVNVKLVDTVCSLSSSAYRDCLVISDGNSMVFGTVDDIQKIHVRSIPMGESVLRIAYQKSTSTYGVCSNRTESKAERVFASKNALVTSQSRPKVASTRADMDESPPNTTSSFMVLDQNTFQVLHSHEFGPWETALSCISGQFTNDSSTYYVVGTGLIYPDETETKIGRIVVFEVDDVERSKLRRVHELVVRGSPLAIRILNGKLVAAINSSIRLFEWTTDKELRLECSSFNHVIALDLKVMNEEVAVADVMRSVSLLSYRMLEGNFEEVAKDWNSQWMVTCEFITAESILGGEAHLNLFTVEVDKTRPITDDGRYVLEPTGYWYLGELPKVMTRSTLVIQPEDSIIQYSQPIMFGTNQGTIGMIVQIDDKWKKFLIAIEKAIADSVKNCMHIEHSSYRTFVFQKRAEPPSGFVDGDLVESILDMDRSVAMDILSKVSDKGWDPSLPRDPVEILKVIEDLARMH	not soluble
SLSRPWQGKGCATLWASVDHRFQINLRGVIDLLSHHLYSSPDVYIRELLQNATDAIRARQHLEPGHEGSIRIELIEKQDGGPPTLLFSDDGIGLTEEEIHRFLATIGESSKREVLAERRGDFIGQFGIGLLSCFMVCDEVLVVTRSAQGGSPTMEWRGRHDGIYTVRPSGHPLERPGTQVFLVARPDAASLFTPQRVRELALHYGGLLPFPIHLTAGGYSGRINTEG	soluble
QMAGIYQALANDGQRIEPRIIEKVVDSSGNEVEQQPPAETRVVSAQTARTVVDMFRGVVQKDPTGINSGTGAGAAVDGYQVSGKTGTAQQVDPNTGAYSNSNYWITFAGIAPADNPRFVVALMLDKPHRGVHGEGGQSAAPLFHDIASWILDRDNVPLSPPMEGQLVLQAQ	not soluble
MLFLDSVAMKEKPEGREEYPFSVPAMRHLERLEFKTPITFFAGNNGSGKSTLLEGLAAGMTAYAIGNHGDVKGDLYLQHAETVAKAFYFARKKYPKIRMFLRAEDVLGYIRRQNENALDDFRWEREKALKKGEDFPEETPEIFRGIVRNNSLDRRSHGEGFLDIMHRRLHGAGLYFLDEPESPLSPQKQLELAAIIRQAADSGGQLIIATHSPVLLAIPEATIYYFDEDGITERLYDELENIAFLRRFLDRPSKYLDDLEHHHHHH	soluble
MSLDLGSNSFHMVIARVVDGAMQIIGRLKQRVHLADGLGPDNMLSEEAMTRGLNCLSLFAERLQGFSPASVCIVGTHTLRQALNATDFLKRAEKVIPYPIEIISGNEEARLIFMGVEHTQPEKGRKLVIDIGGGSTELVIGENFEPILVESRRMGCVSFAQLYFPGGVINKENFQRARMAAAQKLETLTWQFRIQGWNVAMGASGTIKAAHEVLMEMGEKDGIITPERLEKLVKEVLRHRNFASLSLPGLSEERKTVFVPGLAILCGVFDALAIRELRLSDGALREGVLYEMEGRFRHQDVRSRTASSLANQYHIDSEQARRVLDTTMQMYEQWREQQPKLAHPQLEALLRWAAMLHEVGLNINHSGLHRHSAYILQNSDLPGFNQEQQLMMATLVRYHRKAIKLDDLPRFTLFKKKQFLPLIQLLRLGVLLNNQRQATTTPPTLTLITDDSHWTLRFPHDWFSQNALVLLDLEKEQEYWEGVAGWRLKIEEESTPEIAAEGHHHHHH	not soluble
MGSDKIHHHHHHMPTTASVLIRDSAPREATSPPFLDIRDVHKRFAGVKALRGVSLAIERGQIYHLLGENGCGKSTLIKIISGAQPPDEGTLVVEGREVAGLSPIMALAAGIETVYQDLSLLPNLSVAENIALSQQLVASGGQLARRLDLARLKATATRALEAVNLPAGDGFLATRVDELPIATRQLIAIARVIATDAKLVIMDEPTTALTKREVDNLIAVVEKLRAKGVAVLFVTHKLDECRTIGGRAIILRDGRKVMEGDIADFTKKDLSHWMTGRALDDSRYREAERGGERLLDVRDLGRANAFGGVSFSLNRGEILGVTGLLDSGRNELALALAGVCPADRGGVSLAGERVVLSQPADAIAAGIGYLPEDRLSEGLFLEKPIADNIIASVLDRLRGRLGMLDRPLSRSRAQEMTDDLQIATPDIANPVQSLSGGNQQRVLIGRWLMIEPRLLVLHGPTVGVDVGSKDTIFRIIQRLAKGGMAVIIISDDLPELLQNCDRILVMRKGRVAEVFDAEGLGEGALYRALVAEESPRSLP	not soluble
MGSDKIHHHHHHMGENMKILISVCGEGFGHTTRCVAIGEALKNDYEISYIAYGKSKNFIEKYGFKVFETFPEIKLKGKDGKFDITSSILNKEYSPKKAIRREINIIREYNPDLIISDCKYSTVVAAKLLKKPVICISNQNYTRYKLKTDLIVYPTMKALNIINERCERFIVPDFPLPYTICEYNLKIIKNMEFIGPLIRYDVDDVDNYGEDYILSVIGGFEYRYKILEELGKIALKNNLNVKLVCGSYEVAKKLMRDLNLNSYKNENVEIIPITTNMKELIKNAELIVSHGGHSTIMEALSFGKPLIVIPDLDHPEQGNNAKKVHDLGCGIALSYKELYRLEEAILDIRNMKMYKRNASKMKELAKKYDGKKNIKKIIDEFFETRKNIRKYYLTDRIANKLINKFKLKIR	not soluble
MEETRPIDGLTDEDIREILTRYKKIALVGASPKPERDANIVMKYLLEHGYDVYPVNPKYEEVLGRKCYPSVLDIPDKIEVVDLFVKPKLTMEYVEQAIKKGAKVVWFQYNTYNREASKKADEAGLIIVANRCMMREHERLLGEK	soluble
MANAFKLFPTRDTNYLEATYVHHDLNVVWLKLSFRVPLETLFLEYRQQGGHTLILSRQVYENILVRDTDFMSVFCNDLQAILEDSPAIERFFVELSPYYWGKEDFDKRMSAWSQSVQLYDWLVTFLDDRQEELKLKLVSLCEFTSLQILSIIRLISSNYLETIKLTFRKNDEQLESNFQEILKTKQWNNAKAAYVKGCCTPIASILHFQKATVQLDILSIDDLRVLKELATKGTLNIFKIRFHSIADSITDNSLIELFGESKHSFLWEWSINGIDNREIECIYSKTYKEFSIFYSEEYQKLGHGVPENNKSEETTLCTSEHSSKVLQNALLMKNILNHLERKDICRLQRTSRKIHESIANLKPDSKIVALEISLVKIECVTVNVFHKMGVKKLIYENVGLSNVDPTAKLITAMERHNQGVFGEEICFAHGRWQLGFSLSAFAVDLIRNLKDQKSEIQELWLDFSLTQARLRERPDKEHIKILVLATRQLLDVISSAGKTLDRQIPVKKLSIQALGHKPLLQILPLLNPVTLKTIEIQKSEVIMAKKPLNLNKVVQLDQWKNAEEVLIKSITAPGQIQHFLHFVVAEVNLESISMGDVLELKNVFQQNSNKLKKFKAFFENSDIDERIYDDQFLGFPYKRPENPSTNLPSVWFVRIPTSTVLHILYYKNRKMISFSRVSNSSVPSDALM	not soluble
MLRVAVSAALRTVSVRALSNASVQQRVITPILLSAQKPSFQIRQYSAKAPLTKKTLEERIVLVLSLYDKIDAKKLTMDSDFSKDLGLDSLDHVEVVMAMEEEFGFEIPDGDADRFKTPRDIFQYIADKEDVFE	not soluble
MKEIWLLAESESWDEAKEMLKDAIEIGFDGALVRRDFLERAEKLGRMKIVPIEDAVVKISSAEDQERALQREVVVLKFEDWKVIPLENIVAMKKSGKVIAAVDTIEDAKLALTTLERGADGIAVSGDRETLRKFYEVVKEEGERVELVRARVKEIRPLGVGERVCIDTVTLMTPGEGMLVGNQASFMFLVASESEESEYVASRPFRVNAGSVNAYLKVGDKTRYLAELKAGDEVEVVKFDGAVRKSYVGRVKIERRPLILIRAEVDGVEGSVILQNAETIKLVAPDGKHVSVAELKPGDEILVWLGKKARHFGVEVDEFIVERLEHHHHHH	soluble
MSLETSRNLSNFFDVSADLLSISNMQGRFVKVNRAWETALGYPIEALEGVPFLPLLHPEDQQSTRVQINRIEVDDEVNGFVNRYRRADGSYCQLEWRARRCDDLVFGVARDVTERLRIQAEMAEARDAAEAANRAKNDFLANMSHEIRTPLNGVIALAAALDETPLTSKQAEMVAMIRRSGETLERLVSDILDVSKIEAGQMTLQPQAFDLGALVDGLLDVTRLRAKEKGVAVRLERSPTAAGGFLGDSVRIGQVLSNLFSNAVKFTDQGEVIVRVDVEEAGNGQAARLFVEVEDTGVGFDAEKAEMIFQRFNQADSTITRRFGGSGLGLSISKTLVEMMGGEITAQSSPGAGSLFRVTLPLSRTQMGPDAEIDAPRSAAPGEGLKVLLAEDHPINQRVVQLILEPCGAAVTVVENGAQAVEAMASGAFDVVLMDMQMPVMDGLAATRAIRAREGEGQRTPIIMLSANAMDVHRREALQAGADLHVPKPITIAALLDSIGQVMAREGHHHHHH	soluble
MNNHIEALSYYLGAFVDELTLLNVCDVVISPGSRSTPIALLMEQHEGMNTYLHVDERSAGFFALGIAKAKKRPVALLCTSGTAAANYYPAVCEAFHSRVPLIVLTADRPHELRDVGAPQAMNQINLYGTFVKQFTEMALPEASEAMYHYARLTTQRMIASACLAPQGPVHLNFPVREPLIPDFSLESLWDKGRGEYTGVVQQGNAVMPSEYVDSLVGRLSHMEKGLIICGDDSHSEIAAFATQLAEKTGYPILADPLSNIRSGHHDKTMVIDCYDTFLRNELLKETWKPDVLIRFGGMPVSKALTQFIKKQTKAVHIVVDESGQWRDPALVATEVVQASDIAFCSALIEKMPVMKKNDWFRMWQHINEKTKETLREMETYDTAFEGRVITDIVRVLPEGATLFASNSMPIRDTDSFFFTSDKNIQVMANRGVNGIDGIISTALGASMICDPLVLVIGDLSFYHDLNGLLAAKLHELNITIVVVNNDGGGIFSFLPQYEKKEHFESLFGTPIGLDYEHVVTMYGGSFSRVNGWEQFREEVQKGVTTEGLHVVEICTNRDENLTLHRTLWAKTQDVITTSLQGESK	soluble
MGSDKIHHHHHHMQPSATDSTISAGTQPHIVYSERASAPGPLLVFIPGTGGKTPKTAETEQAFIGTALAHGYRVIILSYIDTPAIAQVCTKRVLANDPACAEQVRQKRAFGDDTTARIDDAPQDAIVHRLNALIRYLAAHNAGDHWEQYLAGERLNWRAIVLSGQSQGGGMAAYIAKRIAIRGVIDFSGGWDMRSDSDIASWYSAPSATPPERWYGTYHADERFASAIAASYRAMNIPVSHQFSLSEPVRHPEGKNPGHGEGASNPVYRGIWETMLTGLE	not soluble
MAGDPMIRKPAVAGYFYPSNRNELLSLISSFHVQQSEVSCQPIGVVVPHAGIVYSGRTAMYSYNALRNSSIRDFIIIGPNHRPMTPYASIFPSGSWETPLGNAIINEELASELYKNSQYIVKDEESHSVEHSIEVQIPFLQYMFGNSFTFVPVILGDQEKVVANDIASALMRLSKPYILIASSDFTHYERSDIVERKDMDLISRIVDLDIDGFYDTIERENVTACGYGAIAILMIIAKKIGAKISLLNHSNSGDVTNDYDEVVGYSSIVACRQILEHHHHHH	not soluble
